Reference: paper PMC4558601, “Architecture of the Synaptophysin/Synaptobrevin Complex: Structural Evidence for an Entropic Clustering Function at the Synapse” (Scientific Reports, 2015)

Biological target: the molecule itself
Experiment: SEC + other: SDS-PAGE densitometry and western blot of the co-purified native complex; native SYP/VAMP2 complex purified from calf brain synaptic vesicles in high cholesterol; Sephacryl S-300 in 20 mM NaH2PO4 pH 6.8, 0.2% Brij-35, 0.1% cholesterol, 40 mM sucrose; fractions analysed by SDS-PAGE, silver stain, western blot, densitometry

B1: synaptophysin (SYP), native, from calf brain (natural protein, bovine (endogenous in calf brain), UniProt P20488 1-313, looked up)
chain: MLLLADMDVVNQLVAGGQFRVVKEPLGFVKVLQWVFAIFAFATCGSYSGELQLSVDCANKTKSDLNIEVEFEYPFRLHEVYFEAPTCQGDPKKIFLVGNYSSSAEFFVTVAVFAFLYSMGALATYIFLQNKYRENNKGPMLDFLATAVFAFMWLVSSSAWAKGLSDVKMATDPENIIKGMHVCHQPGNTCKELRDPVTSGLNTSVVFGFLNLVLWVGNLWFVFKETGWAAPFLRAPPGAPEKQPAPGDAYGQAGYGQGPGGYGPQDSYGPQGGYQPDYGQPASSGGGGYGPQGDYGQQGYGPQGAPTSFSNQM
notes: synaptophysin (SYP), bovine, native protein isolated from calf brain synaptic vesicles together with VAMP2; 4-pass integral membrane protein; Endogenous protein, co-purified with VAMP2 as a native complex; source: purified from calf brain synaptic vesicles (Triton X-100 extract with cholesterol; hydroxyapatite/celite flow through, anion exchange, size exclusion)
- stoichiometry N: 6
